Results: the nanobody polyreactivity screen of Harvey et al. (2022)

experiment: yeast display, Sf9 membrane polyspecificity reagent, FACS + sequencing; frameworks hold sequencing errors
Procedure, shortened: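 A synthetic nanobody library was expressed on Saccharomyces cerevisiae BJ5465 by galactose induction for 36–48 hours. The library was stained for 1 hour at 4 °C with 10% biotinylated, detergent-solubilized Sf9 membrane reagent and enriched with streptavidin microbeads before FACS. Low and high (top ~1%) gates were set on anti-HA fluorescence for expression and streptavidin fluorescence for reagent binding, and each polyreactivity label reflects the gate of origin.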

Sequence	polyreactivity (PSR sort gate)
QVQLVESGGGLVQAGGSLRLSCAASGSIFFEYAMGWYRQAPGKERELVAAISRRGGSTYYADSVKGRFTISRDNAKNTVYLQMNSLKPEDTAVYYCNKVNRASRGDYDYWGQGTQVTVSS	high polyreactivity
QVQLVESGGGLVQAGGSLRLSCAASGSIFFEYAMGWYRQAPGKERELVASINRGGGSTYYADSVKGRFTISRDNAKNTVYLQMNSLIPEDTAVYYCAAQCKYRQSYLDYYWGQGTQVTVSS	low polyreactivity
QVQLVESGGGLVQAGGSLRLSCAASGSIFFGYGMGWYRQAPGKERELVATITTSGGTYYADSVKGRFTISRDNAKNTVYLQMNSLKPEDTAVYYCNKEDYGLYPYYVSVGYDYWGQGTQVTVSS	low polyreactivity
QVQLVESGGGLVQAGGSLRLSCAASGSIFFIYAMGWYRQAPGKERELVAAINDGGGSTYYADSVKGRFTISRDNAKNTVYLLMNSLKPEDTAVYYCAAEWSWGPYRYDYWGQGTQVTVSS	high polyreactivity
QVQLVESGGGLVQAGGSLRLSCAASGSIFFIYAMGWYRQAPGKERELVAAISWSDDSTYYADSVKGRFTISRDNAKNTVYLQMNSLKPEDTAVYYCAARYYIGYGHRTYGYDYWGQGTQVTVSS	high polyreactivity
QVQLVESGGGLVQAGGSLRLSCAASGSIFFIYAMGWYRQAPGKERELVATITSGGSTYYADSVNGRFTISRDNAKNTVYLQMNSLKPEDTAVYYCAVDEYFAFDYWGQGTQVTVSS	low polyreactivity
QVQLVESGGGLVQAGGSLRLSCAASGSIFFIYDMGWYRQAPGKERELVADITSGGGSTFYADSVKGRFTISRDNAKNTVYLQMNRLKPEVSAVYYCATDDHDQPGGQLYITEVNYWGQGTQVTVSS	low polyreactivity
QVQLVESGGGLVQAGGSLRLSCAASGSIFFLYAMGWYRQAPGKERELVAAISCSGGRTYYADSVKGRFTISRDNAKNTDYIQMNSLKPEDTAVYYCAASYSGRQDRYPHYDYWGQGTQVTVSS	low polyreactivity
QVQLVESGGGLVQAGGSLRLSCAASGSIFFNNTKGWYRPAPGKERELVAAINWSGTSTYYADSVKGRFTISRDNAMNTVYLQMNSLKPEDTEVYYCAADVVRSNFDGTFLYDYDYWGLGTQVTVSS	low polyreactivity
QVQLVESGGGLVQAGGSLRLSCAASGSIFFNTMGWYRQAPGKERELVAAINTSGGRTYYADSVKGRFTISRDNAKNTVYLQMNSLKPEDTAVYYCATTAYSQYYTYYYWGQGTQVTVSS	high polyreactivity
QVQLVESGGGLVQAGGSLRLSCAASGSIFFPNAMGWYRQAPGKERELVAAITSTSTNYADSVKGRCTISRDNAKNTVYLQMNSLKPEDTAVYYCAADGEFRRAWYEGDYWGQGTQVTVSS	low polyreactivity
QVQLVESGGGLVQAGGSLRLSCAASGSIFFRYAMGWYRQATGKERELVARISWGGGRTYYADSVKGRFTISRDNAKNTVYLQMNSLKPEDTAVYYCNRAYWVNPGGFEYWGQGTQVTVSS	high polyreactivity
QVQLVESGGGLVQAGGSLRLSCAASGSIFFSNAMGWYRQAPGKERELVAAITSTGGSTYYADSVKGRFTISRDTAKNTVYLQLNSLKPEDTAVYYCAAASRRGYYYWGQGTQVTVSS	high polyreactivity
QVQLVESGGGLVQAGGSLRLSCAASGSIFFSNAMGWYRQAPGKERELVASISRDVSTNYADSVKGRFTISRDNAKNTVYLQMTSLKPEDTAVYYCAKRYYRYYYITYNGSHYGYWGQGTQVTVSS	low polyreactivity
QVQLVESGGGLVQAGGSLRLSCAASGSIFFTYAMGWYRQAPGKERELVAAISGVVSTYYADSVKGRFTISRDNAKNTVYLQMNSLKPEDTAVYYCAADYSWTGFGWEYDYWGQGTQVNVSS	low polyreactivity
QVQLVESGGGLVQAGGSLRLSCAASGSIFFVNAMAWYRQAPGKERESVAGITGGGSTYYADSVKGRFTISRDNAKNTVYLQMNSLKPEDTAVYYCNKKAYRKTGMDYWGQGTQVTVSS	low polyreactivity
QVQLVESGGGLVQAGGSLRLSCAASGSIFFVYAMGWYRQAPGKERELVAGIRWSGGRTSYADSVKGRFTISRDNAKNTVYLQMNSLNPEDTAVYYCAADPRSYFTSEYWGQGTQVTVSS	high polyreactivity
